We go through two molecules from patent US20190248882A1 (published 2019).

Assay [1] has as its target A33A8 VH. Description: BLI (Octet); VH domain alone. For orientation: BLI is a label-free optical method that tracks binding on a fibre tip over time.
Assay [2] concerns the target T1, human ANG-2 (R&D Systems) (UniProt O15123 68-496, biotinylated in the Tie-2 competition ELISA (site not stated)).
T1 chain: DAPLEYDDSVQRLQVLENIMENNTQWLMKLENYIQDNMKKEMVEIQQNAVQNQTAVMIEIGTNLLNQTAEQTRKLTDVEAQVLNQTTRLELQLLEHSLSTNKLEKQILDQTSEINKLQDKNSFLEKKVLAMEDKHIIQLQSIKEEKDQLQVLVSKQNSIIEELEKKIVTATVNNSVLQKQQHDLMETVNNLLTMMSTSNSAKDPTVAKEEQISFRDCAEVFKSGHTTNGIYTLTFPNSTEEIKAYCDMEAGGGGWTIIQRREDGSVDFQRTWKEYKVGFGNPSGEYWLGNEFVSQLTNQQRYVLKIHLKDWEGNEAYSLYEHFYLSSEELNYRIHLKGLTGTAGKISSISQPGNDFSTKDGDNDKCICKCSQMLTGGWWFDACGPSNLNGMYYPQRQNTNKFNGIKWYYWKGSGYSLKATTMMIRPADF
Description: inhibition of ANG-2 binding to Tie-2 on HEK293 cells.

B1: ANG-2 (ligand)
chain: DAPLEYDDSVQRLQVLENIMENNTQWLMKLENYIQDNMKKEMVEIQQNAVQNQTAVMIEIGTNLLNQTAEQTRKLTDVEAQVLNQTTRLELQLLEHSLSTNKLEKQILDQTSEINKLQDKNSFLEKKVLAMEDKHIIQLQSIKEEKDQLQVLVSKQNSIIEELEKKIVTATVNNSVLQKQQHDLMETVNNLLTMMSTSNSAKDPTVAKEEQISFRDCAEVFKSGHTTNGIYTLTFPNSTEEIKAYCDMEAGGGGWTIIQRREDGSVDFQRTWKEYKVGFGNPSGEYWLGNEFVSQLTNQQRYVLKIHLKDWEGNEAYSLYEHFYLSSEELNYRIHLKGLTGTAGKISSISQPGNDFSTKDGDNDKCICKCSQMLTGGWWFDACGPSNLNGMYYPQRQNTNKFNGIKWYYWKGSGYSLKATTMMIRPADF
modifications: biotinylated in the Tie-2 competition ELISA (site not stated)
The Kd is the free concentration of one partner at which half of the binding sites on the other are occupied at equilibrium, for simple one-to-one binding. Turning to B1, the Kd in assay [1] was under 0.001 nM.

B2: A33A8 human anti-ANG-2 HCAb (antibody, V domains shown)
VH: QVQLVESGGGLVQPGGSLRLSCAASGFTFSSYWMHWVRQAPGKGLVWVSRINSDGSSTSYADSVKGRFTISRDNAKNTLYLQMNSLRAEDTAVYYCAREGYSSGGQFDYWGQGTLVTVSS
Usually IC50 stands for the concentration at which inhibition is half-maximal. Low values mean higher potency, high ones lower potency. Turning to B2, in assay [2], the 50% inhibitory concentration (IC50) turned out to be 0.295 nM.
